{"source": "patent US20260062488A1", "about": "(AbbVie / Abbott, published 2026)", "binders": {"B1": {"name": "Ab-h1.9d-WT (antibody, human IgG1, kappa)", "heavy": "not shown", "light": "DIQMTQSPSSLSASVGDRVTITCHASQDISDNIGWLQQKPGKSFKLLIYHGTNLEDGVPSRFSGSGSGTDYTLTISSLQPEDFATYYCVQYAQFPWTFGGGTKVEIKRTVAAPSVFIFPPSDEQLKSGTASVVCLLNNFYPREAKVQWKVDNALQSGNSQESVTEQDSKDSTYSLSSTLTLSKADYEKHKVYACEVTHQGLSSPVTKSFNRGEC", "notes": "IgG1/kappa with D356E and L358M (EU); also called Anti-human α4β7 (AC-166667) hu IgG1/k WT mAb"}}, "key": {"FcgRIIIB NA1": {"target": "T1, FcgRIIIB NA1 (human, UniProt O75015)", "T1 construct": "cell surface, on engineered CHO-K1 cells; the list of molecules has only an FcγRIIIb on CHO-K1 cells without the allotype; also called human FcγRIIIb (NA1) on CHO-K1 cells", "T1 sequence (O75015 other isoform, or with tags, fused parts or gaps limits assumed)": "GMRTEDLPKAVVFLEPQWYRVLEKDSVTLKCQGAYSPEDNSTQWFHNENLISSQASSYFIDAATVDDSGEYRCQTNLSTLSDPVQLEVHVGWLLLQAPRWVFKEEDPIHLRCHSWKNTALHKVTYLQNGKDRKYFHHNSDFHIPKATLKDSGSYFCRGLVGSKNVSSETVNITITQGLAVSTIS", "assay": "flow cytometry on CHO-K1 cells expressing the receptor (curve FcgRIIIB NA1), monomeric antibody, F(ab')2 anti-human IgG AF647; N=1"}, "[1]": {"target": "T2, human FcγRIIa (H131) extracellular domain protein (human, UniProt P12318 34-217)", "T2 construct": "extracellular domain; also called hFcγRIIa (H131); FcγRIIa 131H", "T2 sequence (looked up)": "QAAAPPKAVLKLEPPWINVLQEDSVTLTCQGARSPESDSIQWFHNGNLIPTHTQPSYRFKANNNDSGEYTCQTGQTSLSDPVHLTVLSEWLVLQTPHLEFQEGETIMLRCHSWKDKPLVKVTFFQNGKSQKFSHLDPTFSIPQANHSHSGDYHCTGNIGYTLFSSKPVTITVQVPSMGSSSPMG", "assay": "SPR (Biacore T200), His-tagged FcγR captured by anti-His, antibody injected"}, "[2]": {"target": "T3, human FcγRIIIa (V158) extracellular domain protein (human, UniProt P08637 17-208)", "T3 construct": "extracellular domain; also called hFcγRIIIa (V158); FcγRIIIa158V", "T3 sequence (P08637 17-208 F176V limits assumed)": "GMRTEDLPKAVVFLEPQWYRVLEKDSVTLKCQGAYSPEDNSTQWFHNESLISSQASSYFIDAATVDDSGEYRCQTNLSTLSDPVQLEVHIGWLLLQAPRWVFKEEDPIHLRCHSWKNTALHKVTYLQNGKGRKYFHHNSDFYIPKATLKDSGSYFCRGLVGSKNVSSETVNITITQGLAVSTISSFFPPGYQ", "assay": "SPR (Biacore T200), His-tagged FcγR captured by anti-His, antibody injected"}, "[3]": {"target": "T4, human FcγRIIIa (F158) extracellular domain protein (human, UniProt P08637 17-208)", "T4 construct": "extracellular domain; also called hFcγRIIIa (F158); FcγRIIIa158F", "T4 sequence (P08637 17-208)": "as the sequence (P08637 17-208 F176V limits assumed) above, with V160F counted along it", "assay": "SPR (Biacore T200), His-tagged FcγR captured by anti-His, antibody injected"}, "[4]": {"target": "T5, human FcγRI extracellular domain protein (human, UniProt P12314 16-292)", "T5 construct": "extracellular domain; also called hFcγRI", "T5 sequence (P12314 16-292)": "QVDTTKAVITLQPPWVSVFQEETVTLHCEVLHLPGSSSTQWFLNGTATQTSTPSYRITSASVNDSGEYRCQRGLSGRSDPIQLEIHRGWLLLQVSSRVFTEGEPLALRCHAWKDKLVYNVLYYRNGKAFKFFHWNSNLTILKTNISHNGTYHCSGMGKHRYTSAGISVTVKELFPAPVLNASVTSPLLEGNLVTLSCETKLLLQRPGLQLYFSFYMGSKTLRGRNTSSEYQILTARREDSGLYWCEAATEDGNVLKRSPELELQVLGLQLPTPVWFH", "assay": "SPR (Biacore T200), His-tagged FcγR captured by anti-His, antibody injected"}, "FcgRIIA R131": {"target": "T6, FcgRIIA R131 (human, UniProt P12318)", "T6 construct": "cell surface, on engineered CHO-K1 cells; the list of molecules has only an FcγRIIa on CHO-K1 cells without the variant; also called human FcγRIIa (R131) on CHO-K1 cells", "T6 sequence (receptor chain, looked up)": "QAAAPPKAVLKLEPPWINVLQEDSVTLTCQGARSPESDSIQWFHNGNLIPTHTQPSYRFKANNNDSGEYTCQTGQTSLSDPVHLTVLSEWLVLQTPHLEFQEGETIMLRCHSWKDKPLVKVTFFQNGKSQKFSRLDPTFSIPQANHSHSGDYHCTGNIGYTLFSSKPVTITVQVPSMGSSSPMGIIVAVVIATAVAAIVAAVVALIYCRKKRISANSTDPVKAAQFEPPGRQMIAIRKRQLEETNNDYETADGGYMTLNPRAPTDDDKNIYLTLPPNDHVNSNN", "assay": "flow cytometry on CHO-K1 cells expressing the receptor (curve FcgRIIA R131), monomeric antibody, F(ab')2 anti-human IgG AF647; N=1"}, "cynomolgus α4β7 integrin [5]": {"target": "T7, cynomolgus α4β7 integrin (cynomolgus monkey)", "T7 construct": "whole, on cells; On CHOK1-cα4β7 cells or cynomolgus blood lymphocytes; also called cα4β7; cyno α4β7", "assay": "FACS, cyno CD4+ memory"}, "cynomolgus α4β7 integrin [6]": {"target": "T7, cynomolgus α4β7 integrin", "assay": "FACS, cynomolgus lymphocytes"}, "cynomolgus α4β7 integrin [7]": {"target": "T7, cynomolgus α4β7 integrin", "assay": "FACS, cyno CD4+ naïve"}, "[8]": {"target": "T8, human FcγRIIIa (F176) on CHO-K1 cells (human, UniProt P08637 17-254)", "T8 construct": "whole, on cells; also called F158", "T8 sequence (P08637 17-254)": "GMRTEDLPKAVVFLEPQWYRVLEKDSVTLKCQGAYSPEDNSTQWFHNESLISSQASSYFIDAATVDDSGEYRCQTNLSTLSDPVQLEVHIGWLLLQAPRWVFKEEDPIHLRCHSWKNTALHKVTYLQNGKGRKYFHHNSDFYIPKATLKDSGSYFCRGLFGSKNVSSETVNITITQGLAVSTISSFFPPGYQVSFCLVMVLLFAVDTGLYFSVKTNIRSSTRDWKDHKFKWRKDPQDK", "assay": "flow cytometry on CHO-K1 cells expressing the receptor (curve FcgRIIIA F176), monomeric antibody, F(ab')2 anti-human IgG AF647; N=1"}, "[9]": {"target": "T2, human FcγRIIa (H131) extracellular …", "assay": "SPR (Biacore), N = 1"}, "[10]": {"target": "T9, human FcγRIIa (R131) extracellular domain protein (human, UniProt P12318 34-217)", "T9 construct": "extracellular domain; also called hFcγRIIa (R131); FcγRIIa 131R", "T9 sequence (looked up)": "T2 sequence (looked up) with H134R", "assay": "SPR (Biacore), N = 1"}, "[11]": {"target": "T3, human FcγRIIIa (V158) extracellular …", "assay": "SPR (Biacore), N = 1"}, "[12]": {"target": "T10, human FcγRIIb extracellular domain protein (human, UniProt P31994 43-217)", "T10 construct": "extracellular domain; also called hFcγRIIb", "T10 sequence (looked up)": "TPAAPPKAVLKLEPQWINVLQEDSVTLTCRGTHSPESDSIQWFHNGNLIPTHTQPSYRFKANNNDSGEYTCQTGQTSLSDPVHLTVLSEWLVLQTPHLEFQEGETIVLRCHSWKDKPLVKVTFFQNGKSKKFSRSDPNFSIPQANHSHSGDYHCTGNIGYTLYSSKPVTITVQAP", "assay": "SPR (Biacore), N = 1"}, "[13]": {"target": "T4, human FcγRIIIa (F158) extracellular …", "assay": "SPR (Biacore), N = 1"}, "[14]": {"target": "T5, human FcγRI extracellular domain protein", "assay": "SPR (Biacore), N = 1"}, "cynomolgus α4β7 integrin [15]": {"target": "T7, cynomolgus α4β7 integrin", "assay": "FACS, cyno CD8+ memory T cells"}, "cynomolgus α4β7 integrin [16]": {"target": "T7, cynomolgus α4β7 integrin", "assay": "FACS, cyno CD8+ total"}}, "note": "Changes are numbered by the printed parent chain. Numbers in names are those of the source."}
{"binder": "B1", "values": [{"measurement": "binding result", "setting": "FcgRIIIB NA1", "result": "binds"}, {"measurement": "Kd", "setting": "[1]", "result": 5600, "unit": "nM"}, {"measurement": "Kd", "setting": "[2]", "result": 480, "unit": "nM"}, {"measurement": "Kd", "setting": "[3]", "result": 4600, "unit": "nM"}, {"measurement": "Kd", "setting": "[4]", "result": 16, "unit": "nM"}, {"measurement": "binding result", "setting": "FcgRIIA R131", "result": "binds"}, {"measurement": "EC50", "setting": "cynomolgus α4β7 integrin [5]", "result": 0.01, "unit": "nM"}, {"measurement": "EC50", "setting": "cynomolgus α4β7 integrin [6]", "result": 0.062, "unit": "nM"}, {"measurement": "EC50", "setting": "cynomolgus α4β7 integrin [7]", "result": 0.045, "unit": "nM"}, {"measurement": "binding result", "setting": "[8]", "result": "binds"}, {"measurement": "Kd", "setting": "[9]", "result": 4000, "unit": "nM"}, {"measurement": "Kd", "setting": "[10]", "result": 5200, "unit": "nM"}, {"measurement": "Kd", "setting": "[11]", "result": 100, "unit": "nM"}, {"measurement": "Kd", "setting": "[12]", "result": 12000, "unit": "nM"}, {"measurement": "Kd", "setting": "[13]", "result": 3100, "unit": "nM"}, {"measurement": "Kd", "setting": "[14]", "result": 7, "unit": "nM"}, {"measurement": "EC50", "setting": "cynomolgus α4β7 integrin [15]", "result": 0.036, "unit": "nM"}, {"measurement": "EC50", "setting": "cynomolgus α4β7 integrin [16]", "result": 0.035, "unit": "nM"}]}
